Assay results: PMC12647877, “The SMC Hinge is a Selective Gate for Obstacle Bypass” (Nature Communications, 2025)

T1: scSmc4(598-923) condensin hinge/coiled coil with V721C and M821C (S. cerevisiae, UniProt Q12267 598-923, V721C | M821C)
T1 construct: Smc4, S. cerevisiae condensin, residues 598-923; also called scSmc4 hinge; source: Sf9, co-purified with scSmc2 hinge (Strep-Tactin XT, cation exchange, SEC)
T1 sequence (looked up): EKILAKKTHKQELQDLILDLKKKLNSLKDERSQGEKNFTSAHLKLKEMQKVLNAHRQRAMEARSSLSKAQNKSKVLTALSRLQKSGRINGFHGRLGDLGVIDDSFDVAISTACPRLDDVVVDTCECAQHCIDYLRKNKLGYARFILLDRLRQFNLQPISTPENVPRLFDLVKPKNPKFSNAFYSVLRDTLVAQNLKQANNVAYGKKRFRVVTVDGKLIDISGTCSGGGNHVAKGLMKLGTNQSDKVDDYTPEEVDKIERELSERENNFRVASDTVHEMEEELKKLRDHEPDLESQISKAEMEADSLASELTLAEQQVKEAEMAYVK


What was measured:
[1] = molecular target: the molecule itself; experiment: cross-linking; cysteine cross-linking with BMOE (1 mM, 45 s, quenched with DTT) of purified hinge/coiled coil constructs in 20 mM Tris-HCl, 50 mM NaCl; SDS-PAGE, and denaturing agarose gels of entrapped ssDNA circles
[2] = molecular target: T1, scSmc4(598-923) condensin hinge/coiled …; experiment: cross-linking; cysteine cross-linking with BMOE (0.58 mM, 6 min on ice) of purified scSmc2/4 hinge, 1.4 µM in CB buffer (50 mM NaCl, 1 mM MgCl2, 50 mM HEPES pH 7.5, 1 mM TCEP, 5 % glycerol); SDS-PAGE; conditions: both partners purified

Row | Binder | binding result [1] | binding result [2]
1 | bsuSmc(400-776; C437S, R558C, N634C) hinge/coiled coil (domain or fragment, B. subtilis, UniProt P51834 400-776, looked up, Smc (chromosome partition protein Smc), Bacillus subtilis, residues 400-776; also called bsuSmc hinge; B. subtilis Smc hinge; source: E. coli BL21(DE3) Gold, purified (as the scSmc5/6 hinge constructs: HisTrap, SEC)) QLLDDQMSQSAVTLQRLADNNEKHLQERHDISARKAASETEFARIEQEIHSQVGAYRDMQTKYEQKKRQYEKNESALYQAYQYVQQARSKKDMLETMQGDFSGFYQGVKEVLKAKERLGGIRGAVLELISTEQKYETAIEIALGASAQHVVTDDEQSACKAIQYLKQNSFGRATFLPLSVIRDRQLQSRDAETAARHSSFLGVASELVTFDPAYRSVIQNLLGTVLITEDLKGACELAKLLGHRYRIVTLEGDVVNPGGSMTGGAVKKKNNSLLGRSRELEDVTKRLAEMEEKTALLEQEVKTLKHSIQDMEKKLADLRETGEGLRLKQQDVKGQLYELQVAEKNINTHLELYDQEKSALSESDEERKVRKRKLEEE | binds | 
2 | scSmc2(443-740) condensin hinge/coiled coil with S560C and K639C (domain or fragment, S. cerevisiae, UniProt P38989 443-740, looked up, Smc2, S. cerevisiae condensin, residues 443-740; also called scSmc2 hinge; source: Sf9, co-purified with scSmc4 hinge (Strep-Tactin XT, cation exchange, SEC)) KDNELNVKHVKQCQETCDKLRARLVEYGFDPSRIKDLKQREDKLKSHYYQTCKNSEYLKRRVTNLEFNYTKPYPNFEASFVHGVVGQLFQIDNDNIRYATALQTCAGGRLFNVVVQDCQTATQLLERGRLRKRVTIIPLDKIYTRPISSQVLDLAKKIAPGKVELAINLIRFDESITKAMEFIFGNSLICEDPETACKITFHPKIRARSITLQGDVYDPEGTLSGGSRNTSESLLVDIQKYNQIQKQIETIQADLNHVTEELQTQYATSQKTKTIQSDLNLSLHKLDLAKRNLDANPS |  | binds
